# B1: TIMP3: Recombinant tissue inhibitor of matrix metalloproteinase-3, a soluble protein released by MSCs, obtained from Amgen Inc. (protein)
# chain: CTCSPSHPQDAFCNSDIVIRAKVVGKKLVKEGPFGTLVYTIKQMKMYRGFTKMPHVQYIHTEASESLCGLKLEVNKYQYLLTGRVYDGKMYTGLCNFVERWDQLTLSQRKGLNYRYHLGCNCKIKSCYYLPCFVTSKNECLWTDMLSNFGYPGYQSKHYACIRQKGGYCSWYRGWAPPDKSIINATDP
# Assays:
# [1] = system: S6 Ribosomal Protein (S235/236) in SH-SY5Y cells; experiment: S6 Ribosomal Protein (S235/236) phosphorylation in SH-SY5Y cells; type: cell-based, human; details: 1 μg/ml TIMP3, 15 mins
# Description: (§1) SH-SY5Y cells were obtained from ATCC (Cat# CRL-2266, Manassas, Va.) and were cultured in DMEM and 10% FBS up to passage 10. For differentiation of SH-SY5Y cells into a neuronal phenotype, cells were first plated in DMEEM+10% FBS for 24 hrs before exchanging media in DMEM+1% FBS 10 μM retinoic acid. Differentiation was performed for 3 days before experimentation. Hippocampal neurons were prepared according to the protocol by Beaudoin et al. (Nature Protocols 2012; 7(9):1741-1754) with minor modifications. In brief, after trypsin digestion of hippocampi isolated from P1 mouse pups single cell suspensions was created by trituration and plated onto Biocoat™ poly-D-lysine coated 12-well plates (Cat#354470, BD Biosciences, San Jose, Calif.). 2 pups were used per well and cell suspensions were incubated for 10 minutes per well for a total of 6 wells. The serial incubation allowed for variation in cell densities applicable to different experiments but also contributed to the reduction in non-neuronal cells. […]
# Pathscan Antibody™ array kits were purchased from Cell Signaling Technologies (Danvers, Mass.). PathScan® RTK signaling antibody array kit (Fluorescent Readout, Cat#7949) and PathScan™ Akt signaling antibody array kit (Fluorescent Readout, Cat#9700) were performed as per manufacturer's instructions. Imaging was performed on a LI-COR Odyssey™ infrared scanner and pixel densities measured by in house LI-COR Image™ suite software.
# Cell lysates for western blotting were prepared with RIPA buffer (Cat#89900. Thermofisher Scientific, Rockford, Ill.) supplemented with phosphatase inhibitor cocktail 2 (Cat# P5726. Sigma, St Louis, Mo.), phosphatase inhibitor cocktail 3 (Cat# P0044. Sigma, St Louis, Mo.) and complete protease inhibitor (Cat#1862209. Thermofisher Scientific, Rockford, Ill.). […] Protein content was quantified with a Pierce BCA protein assay kit per manufacturer's instructions (Cat#23225. Thermofisher Scientific, Rockford, Ill.).
# Lysates was analyzed in conjuncture with the LI-COR Odyssey™ infra-red imaging system. […]
# [2] = system: β3-tubulin / dendritic branches in the molecular layer of the dentate gyrus; experiment: β3-tubulin western blot and staining of ipsilateral hippocampus 7 days post-TBI; type: in vivo, mouse; details: TIMP3 60 μg/kg IV x3; day 7 post-TBI
# Description: The mouse controlled cortical impact (CCI) injury model was used as previously described. In brief, mice were anesthetized with 5% isoflurane and 1:1 O2:N2 mixture. Animals were mounted on a stereotaxic frame and were secured by ear bars and an incisor bar. Anesthesia was maintained with 2.0% isoflurane and 1:1 O2:N2 mixture. A 5-mm-diameter craniotomy was made midway between bregma and lambda on the right side, with the medial edge of the craniotomy 1 mm lateral to midline. Injury was produced using a magnetic impactor mounted at an angle of 110° from the vertical plane. A single impact at a velocity of 4+/−0.2 m/s was used inflict a moderate to severe injury (1.2-1.3 mm impact depth). After injury, the incision was closed. Sham animals underwent identical surgeries except for impact injury. Core body temperature was monitored using a rectal thermometer and maintained at 36.8° C.-37.2° C. with a heating pad throughout the procedure. For treatments, TIMP3 (60.0 μg/kg) or vehicle control (PBS) administration was performed at 2, 24, and 48 hrs after injury via tail vein injections in a total volume of 125 μl. Animal research was performed with approval of the Institutional Animal Care and Use Committee at ISIS Services LLC (San Carlos, Calif., USA). […]
# [3] = system: hippocampal neurons; experiment: Sholl analysis of isolated hippocampal neurons; type: cell-based, mouse; details: 1 μg/ml TIMP3, 72 hrs
# Description: as §1
# Sholl analysis on processed images of isolated hippocampal neurons was conducted using the Fiji derivation of Image J. (Hypertext Transfer Protocol://Fiji.sc.Fiji). […] After neurites had been traced the images were rendered as an analyzed skeleton and Sholl analysis was run on the image from the Analyze menu option.
# [4] = biological target: MMP-9 (Homo sapiens, UniProt P14780); experiment: SensoLyte Fluorimetric MMP-9 Activity Assay; type: biochemical; details: dose response; 1 μg/ml TIMP3
# Description: SensoLyte Fluorimetric MMP-2 Activity Assay Kit™ (Cat#71151) and SensoLyte Fluorimetric MMP-9 Activity Assay Kit™ (Cat#71155) were purchased from AnaSpec (Fremont, Calif.) and performed per manufacturer's instructions.
# MMP-9, sequence (P14780 94-707, species assumed): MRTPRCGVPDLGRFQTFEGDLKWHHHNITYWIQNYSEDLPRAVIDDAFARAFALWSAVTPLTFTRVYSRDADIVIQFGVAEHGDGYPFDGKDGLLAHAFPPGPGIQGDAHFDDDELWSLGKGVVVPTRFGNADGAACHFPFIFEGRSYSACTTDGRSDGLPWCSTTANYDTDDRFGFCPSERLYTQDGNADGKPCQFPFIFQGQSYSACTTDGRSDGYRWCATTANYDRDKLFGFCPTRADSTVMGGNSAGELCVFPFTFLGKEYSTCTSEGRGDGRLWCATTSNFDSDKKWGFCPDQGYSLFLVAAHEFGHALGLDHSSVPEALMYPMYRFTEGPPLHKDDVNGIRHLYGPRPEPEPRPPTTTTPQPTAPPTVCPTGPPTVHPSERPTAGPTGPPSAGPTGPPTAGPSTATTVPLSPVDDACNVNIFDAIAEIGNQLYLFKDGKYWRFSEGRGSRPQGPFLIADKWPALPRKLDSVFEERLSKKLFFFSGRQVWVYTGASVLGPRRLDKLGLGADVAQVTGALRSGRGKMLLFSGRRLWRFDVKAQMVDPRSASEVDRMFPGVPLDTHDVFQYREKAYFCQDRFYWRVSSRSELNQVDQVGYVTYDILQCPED
molecule,measurement,setting,value
B1,"S6 Ribosomal Protein (S235/236) activation, western blot",[1],activates S6 Ribosomal Protein (S^235/236)
same,"S6 Ribosomal Protein (S235/236) phosphorylation, antibody array",[1],phosphorylates mTORC1 pathway target S6 Ribosomal Protein (S^235/236)
same,number of β3-tubulin+ve dendritic branches >50 μm in the molecular layer,[2],attenuated by TIMP3 treatment
same,"β3-tubulin protein in ipsilateral hippocampus, western blot",[2],attenuated by TIMP3 treatment
same,neurite complexity (Sholl analysis),[3],significantly increased neurite complexity
same,MMP-9 inhibition (Sensolyte FRET assay),[4],can fully inhibit
